These results are taken from patent publication US20110059504A1 (GENERAL HOSPITAL, published 2011).

Positions count from the first letter of the chain named. Numbers in names are those of the source.

The Kd is a measure of binding affinity in units of concentration.

T1: human myostatin (human, UniProt O14793 267-375, biotinylated in selections and radioactive assays (site not stated))
T1 sequence (looked up): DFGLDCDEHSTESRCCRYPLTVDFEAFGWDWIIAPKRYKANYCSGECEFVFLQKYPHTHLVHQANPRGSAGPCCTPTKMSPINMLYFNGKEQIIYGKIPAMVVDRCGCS

T2: FcεRI-MBP (UniProt P12319 26-205)
T2 construct: Produced in E. coli; order of the two parts is printed both ways (mbp-FcεRI, FcεRI-MBP); also called mbp-FcεRI; mbpFcεRI
T2 sequence (looked up): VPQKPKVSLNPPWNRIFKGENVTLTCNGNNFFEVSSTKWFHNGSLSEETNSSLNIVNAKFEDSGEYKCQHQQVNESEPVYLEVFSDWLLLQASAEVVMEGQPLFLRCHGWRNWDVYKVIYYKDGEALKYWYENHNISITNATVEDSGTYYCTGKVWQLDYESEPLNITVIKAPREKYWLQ

B1: M1-1, E. coli-produced (designed binder)
chain: MTIPEIIIKVRGTQVVGSDMTVIVEFTNPLKETLRNVWVHLDGPGVTRPMKKMFPAIPMNHKVQWEEVVRPWVSGHRKLIASMPQLFHIHVYGELDVQIQRRHHHHHH
B2: 45927-B3 (designed binder)
chain: MTIPEIIIKVRGTQVVGSDMTVIVEFTNPLKETLRNVWVHLDGPGVTRPMKKMFLKIPGCSTVQWEEVVRPWVSGHRKLIASMSMLGLPFSLRFIPVYGELDVQIQRRDYKDDDDK
notes: group M1-Aext; extended FG loop; also called Mext (clone ID)
B3: 45927-A3 (designed binder)
chain: B2 chain with P58L
notes: group M1-Aext
B4: 61363-H1 (V15A) (designed binder)
chain: MTIPEIIIKVRGTQAVGSDMTVIVEFTNPLKETLYNVWVHLDGPGVTRPMKKMFWEIRTNHPVQWEEVVRPWVSGHRKLIASMSSNSRDHVYGELDVQIQRRDYKDDDDK
notes: group N4; V15A
B5: 61362-B8 (I23L) (designed binder)
chain: MTIPEIIIKVRGTQVVGSDMTVLVEFTIPLQDILNVWVHLDGPGVTRPMKKMFFSIRMTPAVQWEEVVRPWVSGHRKLIASMSFHTHRHVYGELDVQIQRRDYKDDDDK
notes: group N4; I23L
B6: 61363-C12 (G45E) (designed binder)
chain: MTIPEIIIKVRGTQVVGSDMTVIVEFTNPLEENLYNVWVHLDGPEVTRPMKKMFYQISTNIPVQWEEVVRPWVSGHRKLIASMGAHTKDHVYGELDVQIQRRDYKDDDDK
notes: group N4; G45E
B7: 61362-F2 (designed binder)
chain: MTIPEIIIKVRGTQVVGSDMTVIVEFINTSNETLPSVWVHLDGPGVTRPMKKMFPEIPPNSSVQWEAWVSGHRKLIASMIRDSSRHVYGELDVQIQRRDYKDDDDK
notes: group N2; Δ67-70, P71A
B8: FG6+6 phage clone MNPRMEM / HPDSD / RLWTLWMARWRW (designed binder)
chain: TIPEIIIKVRGTQVVGSDMTVIVEFMNPRMEMLRNVWVHLDGPGVTRPMKKMFREIHPDSDVQWEEVVRPWVSGHRKLIASMSRLWTLWMARWRWVYGELDVQIQRR
notes: not shown: 6-his, myc tag and C-terminal domain of M13 pIII (phage display fusion)
B9: FG6+6 phage clone GNPTKET / RPRSM / YRPRRGGMRLRH (designed binder)
chain: TIPEIIIKVRGTQVVGSDMTVIVEFGNPTKETLRNVWVHLDGPGVTRPMKKMFREIRPRSMVQWEEVVRPWVSGHRKLIASMSYRPRRGGMRLRHVYGELDVQIQRR
notes: as for B8
B10: FG6+6 phage clone TNPRRRV / RPRST / WNSRWPAPTRRR (designed binder)
chain: TIPEIIIKVRGTQVVGSDMTVIVEFTNPRRRVLRNVWVHLDGPGVTRPMKKMFREIRPRSTVQWEEVVRPWVSGHRKLIASMSWNSRWPAPTRRRVYGELDVQIQRR
notes: as for B8
B11: FG6+6 phage clone SNPLSRP / RPHSN / SRSLWLSIGKRH (designed binder)
chain: TIPEIIIKVRGTQVVGSDMTVIVEFSNPLSRPLRNVWVHLDGPGVTRPMKKMFREIRPHSNVQWEEVVRPWVSGHRKLIASMSSRSLWLSIGKRHVYGELDVQIQRR
notes: as for B8
B12: FG6+6 phage clone TNPLRGT / PPNVK / GLSTAGRWKRVR (designed binder)
chain: TIPEIIIKVRGTQVVGSDMTVIVEFTNPLRGTLRNVWVHLDGPGVTRPMKKMFREIPPNVKVQWEEVVRPWVSGHRKLIASMSGLSTAGRWKRVRVYGELDVQIQRR
notes: as for B8
B13: FG6 phage clone PSPFIEN / RPECI / RGWLRS (designed binder)
chain: TIPEIIIKVRGTQVVGSDMTVIVEFPSPFIENLRNVWVHLDGPGVTRPMKKMFREIRPECIVQWEEVVRPWVSGHRKLIASMSRGWLRSVYGELDVQIQRR
notes: as for B8
B14: FG6 phage clone TIPHRGR / QPNVP / RAFLRH (designed binder)
chain: TIPEIIIKVRGTQVVGSDMTVIVEFTIPHRGRLRNVWVHLDGPGVTRPMKKMFREIQPNVPVQWEEVVRPWVSGHRKLIASMSRAFLRHVYGELDVQIQRR
notes: as for B8
B15: FG6 phage clone INPLQVS / GPSSA / IYRYGL (designed binder)
chain: TIPEIIIKVRGTQVVGSDMTVIVEFINPLQVSLRNVWVHLDGPGVTRPMKKMFREIGPSSAVQWEEVVRPWVSGHRKLIASMSIYRYGLVYGELDVQIQRR
notes: as for B8
B16: FG6 phage clone ANPIKHM / RPTAG / LGVLRR (designed binder)
chain: TIPEIIIKVRGTQVVGSDMTVIVEFANPIKHMLRNVWVHLDGPGVTRPMKKMFREIRPTAGVQWEEVVRPWVSGHRKLIASMSLGVLRRVYGELDVQIQRR
notes: as for B8
B17: FG6 phage clone RRPTKGN / GPGQV / LGMLRR (designed binder)
chain: B16 chain with A26R, N27R, I29T, H31G, M32N, R57G, T59G, A60Q, G61V, V86M
notes: as for B8

chicken lysozyme, sequence (P00698 19-147 limits assumed): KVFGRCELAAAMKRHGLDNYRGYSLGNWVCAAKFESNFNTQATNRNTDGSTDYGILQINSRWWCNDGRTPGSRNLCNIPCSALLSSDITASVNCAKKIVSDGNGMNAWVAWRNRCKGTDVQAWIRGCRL

The target of the first experiment is T1, human myostatin. The experiment in a line: cell-based or functional assay.
On to B1, for which the “EC50 (read off the curve); blocking of myostatin-induced inhibition of MPC-11 proliferation” value was ~20 nM.

Another experiment has as its target T1, human myostatin. In words: radioactive equilibrium binding assay.
With B2, the Kd fell in the range of 53 to 86 nM. Still for that read-out and setting: as for B3, the figure is 53 to 86 nM.

For a further experiment, the target named is T3, streptavidin beads (M-280 beads) (UniProt P22629 37-163, limits assumed).
T3 construct: Capture beads used as negative control
T3 sequence (P22629 37-163 limits assumed): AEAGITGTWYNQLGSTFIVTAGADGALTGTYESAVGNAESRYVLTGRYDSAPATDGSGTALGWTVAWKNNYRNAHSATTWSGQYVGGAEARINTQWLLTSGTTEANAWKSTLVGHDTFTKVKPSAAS
In words: radioactive equilibrium binding assay.
For the molecule B4, the binding result is listed as “no binding”.

With B5, the binding result is “no binding”. On the same count and under the same terms, the result for B6 reads “no binding”; that for B7, “no binding”.

For the next experiment, the target named is T4, human β-NGF (human, UniProt P01138 122-241, biotinylated (site not stated)).
T4 construct: also called biotinylated human β-NGF; nerve growth factor
T4 sequence (P01138 122-241 limits assumed): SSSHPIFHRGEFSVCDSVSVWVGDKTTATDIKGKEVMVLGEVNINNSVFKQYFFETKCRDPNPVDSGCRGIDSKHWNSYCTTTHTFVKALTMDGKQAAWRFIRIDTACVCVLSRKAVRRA
The experiment in a line: radioactive equilibrium binding assay.
Turning to B4, the Kd is < 100 nM. Same read-out and setting: the result for B5 reads < 100 nM. As to B6, the dissociation constant (Kd) was < 100 nM.

For B7, the equilibrium dissociation constant (Kd) was < 100 nM.

In a further experiment the target is T1, human myostatin. In words: radioactive equilibrium binding assay. This is another data set of the same source. As to the method:
(§1) Affinities of selected F13β2 binders to biotinylated myostatin were determined in radioactive equilibrium binding assay (FIGS. 11A and 11B; Table 3). ³⁵S-labeled binder proteins from selection pools and single clones were produced in vitro in a rabbit reticulocyte lysate translation kit (Ambion) and purified on M2-agarose (Sigma). Varying concentrations of biotinylated human myostatin (0-100 nM) or other proteins (protein 1: 100 nM; peptide 1: 250 nM; protein 2: 50 nM) were incubated with a constant concentration of the purified binder protein (1 or 2 nM) at 30° C. for 30 min in buffer B (1×PBS, 0.02% Triton X-100 [pH 7.4]). The receptor-binder complexes were captured by using 25 μl of M280 or Protein A (Dynal) (protein 2) magnetic beads for 10 min at room temperature on a Kingfisher instrument (Thermo Fisher Scientific). The beads were washed five times with 100 μl buffer B, and the amount of ³⁵S-methionine remained on the beads was measured by scintillation counting. Data were analyzed by using the GraphPad Prism software (GraphPad Software, Inc., San Diego, Calif.), fitted with a one-site, nonlinear binding equation. For inhibition assay the binding of ³⁵S-labeled proteins to 20 or 25 nM of biotinylated human myostatin was performed in the presence of varying concentrations of inhibitor (human activin receptor IIB/Fc chimera (R&D Systems, Minneapolis, Minn.) (0-250 nM); protein 1 (100 nM), peptide 1 (250 nM), protein 2 (50 nM); proteins, produced in E. coli, M17, M7, M29, M21, M1-1, WT F13β2 (500 nM)).
Take B2: the B max is 50.7% and the Kd amounted to 86.7 nM. For the molecule B3, the B max worked out at 36.4% and the Kd is 53.2 nM.

A further experiment has as its target T4, human β-NGF. The experiment in a line: radioactive equilibrium binding assay. This is another data set of the same source. As to the method: as §1
Selected F13β2 binders were tested for binding to biotinylated β-NGF in radioactive equilibrium binding assay (FIGS. 21A and 21B; Table 4) according to the procedure described for myostatin binders. NGF at concentrations up to 100 nM was incubated with a constant concentration of the purified binder protein (1 or 2 nM) at 30° C. for 1 hour. Affinities to human β-NGF differed greatly between various binders.
For the molecule B4, the B max came to 8.4% and the Kd came out at 22.9 nM.

Consider B5, for which the B max worked out at 2.1% and the Kd turned out to be 3.8 nM. Turning to B6, the B max amounted to 33.6% and the Kd is 36 nM. On to B7, for which the B max is 35.4% and the Kd is 62 nM.

Another experiment has as its target T2, FcεRI-MBP. The experiment in a line: phage ELISA on target-coated Maxisorp wells, anti-M13 pVIII-HRP. As to the method: (§2) An Elisa screening was performed after four rounds of selection to identify binding clones. Randomly picked phagemid clones were incubated with target-coated or buffer-coated Maxisorp wells at room temperature for 1 hour. Unbound phage was removed and the wells were washed eight times with PBS pH 7.4, 0.05% Tween-20. Binding was determined with an anti-M13 pVIII antibody-HRP conjugate (GE). […] Varying levels of binding to targets and the Maxisorp surface were also observed in other clones.
In general terms: An ELISA detects its analyte on a solid surface through an enzyme-linked reagent.
Regarding B8, the “Target Binding” value is 2.35.

With B9, the “Target Binding” value was found to be 4. On the same count and under the same terms, the result for B10 reads 1.73; that for B11, 3.31. On the same count and under the same terms, the result for B12 reads 4.

A further experiment deals with chicken lysozyme (chicken, UniProt P00698 19-147). Described as above. As to the method:
as §2
B13: the “Target Binding” value stood at 1.19. Still for that read-out and setting: as for B14, the figure is 0.34; as for B15, 4. On the same count and under the same terms, as for B16, the figure is 2.83; as for B17, 2.45.
